Data on 36 sequences can be found in the supplement of paper PMC10567573.

± gives the standard deviation.

The series can be described thus: protein stability index of a GFP-peptide fusion (GPS, HEK-293T) (PSI 1-6); higher = more stable. The settings on record: c terminus: a fixed tail appended.
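Also: 24-mer peptide tiles fused after GFP, lentivirally expressed, FACS-sorted into six equal bins by GFP/DsRed ratio, decoded by Illumina sequencing, PSI is the read-weighted mean bin number.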

As for SSSASYGGGFGGGSCQLGGGRGVS [KRT13], the protein stability index runs as follows: (treatment: DMSO) 3.71 ± 0.65; (treatment: MLN4924 1 uM, 8 h) 3.94 ± 0.36.
For QEYQLPYQRVLPLPIFTPAKMGAT [TCAP] the same measures were 3.01 ± 0.35 and 3.09 ± 0.18.
For LVTQQLPHLMPSNCGLEEKIANLG [S100A14] the same measures were 2.43 ± 0.68 and 3.05 ± 0.55.
Consider MVGGLKRKHSDLEEEEERWEWSPA [SERTAD3], for which the protein stability index (treatment: DMSO) came out at 4.23 ± 0.4 and the protein stability index (treatment: MLN4924 1 uM, 8 h) was found to be 4.56 ± 0.16.
For QECPPDGRSFREEQCVSFNSHVYN [ADAMTSL2], in that order: 4.08 ± 0.11 and 3.91 ± 0.2.
As for QETVLVEERRVVHASGDASYSAGD [EPB41L3], the protein stability index was found to be 5.28 ± 0.2 (treatment: DMSO) and 5.38 ± 0.24 (treatment: MLN4924 1 uM, 8 h).
For AFGAPIGGTLFSLEEGSSFWNQGL [CLCN6] the same measures were 2.47 ± 0.27 and 2.47 ± 0.35.
As to PHPDLPAEEKEQLLHNDEYQETMV [USP39], the protein stability index (treatment: DMSO) is 5.35 ± 0.24 and the protein stability index (treatment: MLN4924 1 uM, 8 h) turned out to be 5.55 ± 0.21.
For TQDSARVNPQDGTNTLTRIAENGV [EHMT1] the same measures were 5.11 ± 0.16 and 5.1 ± 0.19.
For LAFKNDIQFWNSRQSLEGLSVRSV [CLPTM1] the same measures were 2.45 ± 0.18 and 2.5 ± 0.14.
Turning to LRKHRELCDVVLVVGAKKIYAHRV [KLHL20], the protein stability index turned out to be 2.67 ± 0.5 (treatment: DMSO) and 2.3 ± 0.43 (treatment: MLN4924 1 uM, 8 h).
For FFVSSINTLVTKTMEDTLMTVKQY [ARFIP2] the same measures were 3.08 ± 0.64 and 3.05 ± 1.
For SNVGTAISKKFGDMSYSIRHSISM [TPD52L1] the same measures were 2.19 ± 0.49 and 2.26 ± 0.45.
Regarding YLRDSSPAPCADGPAGGLADLSSG [PWWP2B], the protein stability index is 4.78 ± 0.2 (treatment: DMSO) and 4.8 ± 0.11 (treatment: MLN4924 1 uM, 8 h).
For HRWPPVWYLKEEDHYQRVKREREK [RHOBTB1], in that order: 3.75 ± 0.34 and 4.03 ± 0.28.
For MEEFRRSYSRLCRESGAEPQEAVL [LRRC45] the same measures were 3.77 ± 0.22 and 3.84 ± 0.27.
For PSNKAPLLVLCEDHRGRMVKHQCC [EHMT1] the same measures were 3.13 ± 0.27 and 3.37 ± 0.34.
IYVKLIEECTDLQKEGEFSTCFTE [OAS1]: the protein stability index runs as follows: (treatment: DMSO) 2.37 ± 0.2; (treatment: MLN4924 1 uM, 8 h) 2.26 ± 0.28.
Take DNEDSELNGDYGENIYPYEEDKDE [MIA2]: the protein stability index is, setting by setting: (treatment: DMSO) 5.37 ± 0.24; (treatment: MLN4924 1 uM, 8 h) 4.86 ± 1.1.
For ALAHCHQHGLVLRDLKLCRFVFAD [TRIB3], in that order: 2.44 ± 0.43 and 2.23 ± 0.23.
For VLLAVLPVLLLQITVGLVFLCLQY [MOG] the same measures were 3.18 ± 0.24 and 3.13 ± 0.32.
For TSQEIFRQRFRHLRYQETPGPREA [ZNF232], in that order: 3.63 ± 0.36 and 3.6 ± 0.28.
For EAFALPDSLLVVLDMDEGTLSFIV [SPSB4], the protein stability index came to 2.42 ± 0.21 (treatment: DMSO) and 2.53 ± 0.31 (treatment: MLN4924 1 uM, 8 h).
For RPSEAQSVILRRYFLELTQSFIIP [DENND6A], in that order: 2.91 ± 0.44 and 2.67 ± 0.45.
For ARNGNAEEVRQLLETMARNEVIAD [OSBPL1A] the same measures were 4.11 ± 0.061 and 4.07 ± 0.32.
For DLDPLELIALANRFCLPHLVALAE [RHOBTB1] the same measures were 2.5 ± 0.11 and 2.14 ± 0.2.
Turning to RALSDTTEELTVIKSSLKDEYQYS [SLC2A12], the protein stability index by setting is: (treatment: DMSO) 4.54 ± 0.22; (treatment: MLN4924 1 uM, 8 h) 4.68 ± 0.08.
For SPPGSTKRRKSMSGASPKESTNPE [CDC25A] the same measures were 5.47 ± 0.11 and 5.4 ± 0.21.
For DVFSENLLADVKGARAALNEIESR [STX11], in that order: 4.22 ± 0.22 and 4.37 ± 0.12.
For KKKKTKKIKEKYIDQEELNKTKPI [HSP90AB1] the same measures were 4.28 ± 0.26 and 4.53 ± 0.31.
For the sequence NKPTMSFKDYIQERSDPVEQGKPV [ETS2], the protein stability index is, setting by setting: (treatment: DMSO) 4.75 ± 0.23; (treatment: MLN4924 1 uM, 8 h) 4.83 ± 0.26.
For FRFIPVLFPNAKKEHVPTWLQNTH [TRAF3IP2] the same measures were 2.3 ± 0.61 and 2.6 ± 0.69.
As for TQEKKRLSRTNEELLWKLQTGDPT [MTUS2], the protein stability index runs as follows: (treatment: DMSO) 4.46 ± 0.34; (treatment: MLN4924 1 uM, 8 h) 4.36 ± 0.11.
For EHVLMFAKLALYPCASLLAFASTC [TMEM175] the same measures were 3.42 ± 0.23 and 3.14 ± 0.5.
For SWKESSMNIIELEIPDQNIDVEAL [GMCL1] the same measures were 4.26 ± 0.23 and 4.08 ± 0.29.
PPRGAVERHSDLPPLNPTSWWADL [SPNS1]: the protein stability index reads like this: (treatment: DMSO) 3.28 ± 0.29; (treatment: MLN4924 1 uM, 8 h) 3.34 ± 0.29.
